# T1: Human CD3eg linker (human)
# T1 construct: Single-chain soluble construct expressed in FreeStyle293F cells; used as the SPR analyte; also called recombinant human CD3
# T1 chain: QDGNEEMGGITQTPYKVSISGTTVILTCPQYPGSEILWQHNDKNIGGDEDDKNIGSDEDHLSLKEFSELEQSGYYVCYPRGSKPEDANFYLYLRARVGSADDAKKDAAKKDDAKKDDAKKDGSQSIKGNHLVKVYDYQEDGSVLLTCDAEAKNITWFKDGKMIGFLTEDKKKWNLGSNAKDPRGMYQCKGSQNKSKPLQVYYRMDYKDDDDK
# B1: FAB0060hh (antibody, V domains shown)
# VH: QSLEESGGRLVTPGTPLTLTCTASGFSLSTYWMNWVRQAPGKGLEWIGTINIDGSAAYASWAKGRFTISRTSTTVDLKAASPTTEDTATYFCATYGGDIWGPGTLVTVSS
# VL: DVVMTQTPASVSEPVGGTVTIKCQASQSISTALAWYQQKPGQPPKLLIYGASTLESGVPSRFKGSGSGTEFTLTISDLECADAATYYCQCTYYGNNYGNAFGGGTKVEIK
# notes: Conformation-specific anti-CH1 antibody from immunised rabbits
# B2: FAB0059ff (antibody, V domains shown)
# VH: QSLEESGGRLVTPGTPLTLTCTASGFSLSSYWMNWVRQAPGKGLEWIGTVNIDGSTDYASWAKGRFTISRTSTTVDLKAASPTTEDTATYFCARYGGDIWGPGTLVIVSL
# VL: DVVMTQTPASVSEPVGGTVTIKCQASQSISTALAWYQQKPGQPPKLLIYGASTLESGVPSRFKGSGSGTEFTLTISDLECADAATYYCQCTYYGSSYGNAFGGGTKVEIK
# notes: as for B1
# B3: FAB0133hh (antibody, V domains shown)
# VH: QSLEESGGRLVTPGTPLTLTCTASGFSLSTYYMNWVRQAPGKGLEWIGTITIDGTAYYASWAKGRFTISRTSTTVDLKAASPTTEDTATYFCARYDGDIWGPGTLVTVSS
# VL: DVVMTQTPASVSEPVGGTVTIKCQASQSISTALAWYQQKPGQPPKLLIHGASILESGVPSRFKGSGSGTEFTLTISDLECADVATYYCQCTYYGISYGNAFGGGTKVEIK
# notes: as for B1
# B4: H1573L0581 (antibody, V domains shown)
# VH: QVQLVESGGGLVQPGRSLRLSCAASGFKFSNVWFHWVRQAPGKGLEWVAQIKDYYNAYAAYYAPSVKGRFTISRDDSKNSIYLQMNSLKTEDTAVYYCHYVHYASASTLLPAFGVDAWGQGTTVTVSS
# VL: DIVMTQSPLSLPVTPGEPASISCQPSQEVVHMNRNTYLHWYQQKPGQAPRLLIYKVSNRFPGVPDRFSGSGSGTDFTLKISRVEAEDVGVYYCAQGTSHPFTFGQGTKLEIK
# notes: Dual-Fab antibody (Dual-Ig) captured via anti-human Fc; also called DualAE07; dBBDu183H1573/dBBDu072L0581
# B5: FAB0135hh (antibody, V domains shown)
# VH: QSLEESGGRLVTPGTPLTLTCTASGFSLSSYYMSWVRQAPGEGLEYIGWISSDGSTYYASWAKGRFTISRTSTTVDLKITSPTTEDTATYFCARDYAASNIWGPGTLVTVSS
# VL: DVVMTQTPASVSEPVGGTVTIKCQASENIGNALAWYQQKPGQRPKLLIYGASNLESGVPSRFKGSRSGTEYTLTISDLECDDAATYYCQSTYYSSSYSNPFGGGTKVEIK
# notes: as for B1
# Key:
# [1] = biological target: T2, DualAE05-SG1202k/SG1201hV11 (engineered Cys at position 191 (EU) of CH1, unpaired); assay: SPR (Biacore T200, 37 C), tool antibody captured on mouse anti-human Fc, anti-CH1 antibody injected
# T2 construct: Heterodimeric antibody with S191C in only one Fab arm, so it exists only in the “unpaired cysteines” form; not shown: light chain constant region
# Procedure: (§1) Biacore binding experiments were performed to characterize binding activities of the anti-CH1 antibodies prepared in Example 3.2 to DualAE05-SG1201, DualAE05-SG1202, DualAE05-SG1202k/SG1201hV11, IgG1_001 and IgG4_001 at 37 degrees C. using Biacore T200 instrument (GE Healthcare). Specifically, mouse anti-human Fc (GE Healthcare) was immobilized onto all flow cells of a CM4 sensor chip using amine coupling kit (GE Healthcare). Tool antibodies DualAE05-SG1201, DualAE05-SG1202, DualAE05-SG1202k/SG1201hV11, IgG1_001 and IgG4_001 were captured onto flow cell, and then anti-CH1 antibodies obtained from Example 3.2 was injected over all the flow cells. All antibodies were prepared in ACES pH 7.4 containing 20 mM ACES, 150 mM NaCl, 0.05% Tween 20, 0.005% NaN₃. Sensor surface was regenerated each cycle with 3M MgCl₂.
# [2] = biological target: T3, DualAE05-SG1201; assay: as above
# T3 construct: Bivalent tool antibody with human IgG1 CH1 without S191C
# Procedure: as §1
# [3] = biological target: T4, DualAE05-SG1202 (Heavy chain pos 202 is the engineered Cys (S191C, EU). It can form an inter-Fab disulfide between the two heavy chains, so the preparation is a mixture of the paired and unpaired cysteine forms.); assay: as above
# T4 construct: Corresponds to DualAE05-SG1201 with S191C in both Fab arms
# Procedure: as §1
# [4] = biological target: T5, IgG4_001; assay: as above
# T5 construct: Tool antibody for screening; captured on mouse anti-human Fc; copies: 2 + 2
# T5 sequence (VH, as listed by the source limits assumed): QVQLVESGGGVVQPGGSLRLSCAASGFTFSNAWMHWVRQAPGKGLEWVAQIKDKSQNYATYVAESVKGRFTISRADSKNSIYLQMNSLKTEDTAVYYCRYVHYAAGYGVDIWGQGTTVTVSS
# Procedure: as §1
# [5] = biological target: T6, IgG1_001; assay: as above
# T6 construct: Tool antibody for screening; captured on mouse anti-human Fc; copies: 2 + 2
# T6 sequence (VH, as listed by the source limits assumed, chain 1 of 2): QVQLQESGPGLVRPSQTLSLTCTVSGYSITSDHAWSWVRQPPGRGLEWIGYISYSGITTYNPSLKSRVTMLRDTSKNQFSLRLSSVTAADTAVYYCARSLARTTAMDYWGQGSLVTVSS
# T6 sequence (VL, as listed by the source limits assumed, chain 2 of 2): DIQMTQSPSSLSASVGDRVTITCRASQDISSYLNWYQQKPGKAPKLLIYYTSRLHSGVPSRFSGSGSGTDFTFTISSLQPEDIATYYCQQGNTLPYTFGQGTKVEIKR
# Procedure: as §1
# [6] = biological target: T1, Human CD3eg linker; assay: SPR (Biacore 8K), antibody captured on anti-human Fc, recombinant human CD3 as analyte, 25 C, 1:1 model
# Procedure: Binding affinity of Dual-Fab antibodies (Dual-Ig) to human CD3 were assessed at 25 degrees C. using Biacore 8K instrument (GE Healthcare). Anti-human Fc (GE Healthcare) was immobilized onto all flow cells of a CM4 sensor chip using amine coupling kit (GE Healthcare). Antibodies were captured onto the anti-Fc sensor surfaces, then recombinant human CD3 or CD137 was injected over the flow cell. All antibodies and analytes were prepared in ACES pH 7.4 containing 20 mM ACES, 150 mM NaCl, 0.05% Tween 20, 0.005% NaN₃. Sensor surface was regenerated each cycle with 3M MgCl₂. […] CD137 binding affinity assay was conducted in same condition except assay temperature was set at 37 degrees C.
binder,measurement,setting,value
B1,Relative binding activity to tool antibody (normalized against RU binding value for IgG1_001),[1],0.957
B2,Relative binding activity to tool antibody (normalized against RU binding value for IgG1_001),[1],0.929
B3,Relative binding activity to tool antibody (normalized against RU binding value for IgG1_001),[1],0.922
same,Relative binding activity to tool antibody (normalized against RU binding value for IgG1_001),[2],1.02
same,Relative binding activity to tool antibody (normalized against RU binding value for IgG1_001),[3],0.206
same,Relative binding activity to tool antibody (normalized against RU binding value for IgG1_001),[4],-0.017
same,Relative binding activity to tool antibody (normalized against RU binding value for IgG1_001),[5],1
B4,Kd,[6],156 nM
B5,Relative binding activity to tool antibody (normalized against RU binding value for IgG1_001),[1],0.96

# Reference: US20230121511A1 (Chugai, published 2023)
